The record followed here is the DeepSol protein solubility set.

The data set can be described thus: soluble on expression in E. coli; label from the status in PepcDB or PDB records.
Regarding “MDPLDDLLTQLEGVEEEELKPVNRAPRLLNMEEACENQGSSEKPSDSSSKNRYEDDDSDDEELYVKKRELTEQGALLKRHLEKNSSTSGPKATDAWKTNKKSVLTGLTKPSTDTVTVGIVRFDKFQISIRNPKISATSFGAFTAGMKLEKLSNLKPTSNFKEAWCTIGVIVEKGFKKKSANGNDFLIWKLHDLKDCQTQPVKLLMFGDAIKDHWEIKLGSVIALISAQIADDSTASGAKKTVSATLKVAKSNNIVEIGQSAHFGTCKGIRQQDGQRCSNFVNSSLSEFCVFHVMSAARKLSAKRGVFNAVTCGPNVGGLSFNKKPGTPRPPISSRPGISGSGLATSSGSPMLRDTMRPADSFTLTTPTSGLKKITKEEEKSSLNDLLSQRKNTFAARQMLKLKEKKDEKLAESVEEMIEFLGTTGGEEKPSVHSSFGEFLAADTRREKAATVDLRASSATSGTSASSPGGSKLWTMSLANKKAAPLGHKDAQEHAARLRAIAILKAKRKEAEMEKLTGGGGGVKRKASGTPTAPEPEAKKPRSQKMDEIRAMLARKSTHHKEAEKAEHDMLQRHLTGMEEREKVETFTTTCVEVKNVKVVTCNQCKYTSQFASSECIKKEHKLIKHTADKRFFKCTGCKKRTVCFEMMPVKHCAHCNENKWERVAMKDERKVVLDTENLLLRGEERPFVGS”, the “soluble on expression in E. coli” value was “not soluble”.

For “MGSDKIHHHHHHMMNLSELAPDYIRAIQPYQPGKPISELVRDLGLNKDEVVKLASNENPLGTSPLAKEAMIQALNESARYPDGSGFELKAALSERLGMPADQIVLGNGSNDVLELATRIFLHPDSTAIYSQYAFAIYPLLAQAVGARGIAVPARNYGHDLEAMLAAVTPETRIIFIANPNNPTGTLCDARDLLRFMERVPQDVLVILDEAYDEYLPEANKANSIAWLKNFQNLVITRTFSKAYGLASVRVGFALAHADIANLMNRIRQPFNVNSIGLAAAQAALKDVEFVKLAYMTNRTGMQQMTHGLDQLGIEYIPSFGNFVCCHIDGHPANTLKIYRNLLQQGVIVRPLGNYDMLNHLRVTIGIEEENKRFLQALEQALKELD”, the “soluble on expression in E. coli” value was “not soluble”.

Take “MLSRICGNGIRLTRTRLQFQPSIVTFRDYSNPAPKRGFLNNLIDNVRDEMQKNKELQEHQQQLKARMQELNESDALKDARKKFEIVEKETLKSSEVVKQKIEELSDHMKKMVHEIQKTEAGKKMTEAGAEALKQARKAAEHVEKVAEKVGDTEVYKHVSTSMKTVKDEIDNIADVRMYSRPEALTKRTDGFDLEKERVVEANDSATDVTLHKDSKWYSGWKNFSESNTYYHKLLDWKIKYDESDNMAVRMMRGVTEKIGSVFSGQNEVSEVLTEIHKIDANFDKQEWLRFCETKIIPNILEAFIRFDLEVLQSWCHERAYTQLSTVVKEYQKMHFSTKDSRIIDINKVEMATGKMMEQGPVLIISFQVYMINVTKNADGKVVEGDPDNPKRINHIWVLCRDVEEYNPALAWKLLEVHMQETPLAL”: the “soluble on expression in E. coli” value was “not soluble”.

Turning to “MGSDKIHHHHHHMTSPNTTQGAADPIQSYLNQGLRNYWYPVAPSWQVGDAPVGITRLGDQIVLWRDKEGKVRALEDRCPHRGARLSLGWNLGGSVACWYHGIEVDGGGTVTKVPAVSNCPLEGQKCVKSYPVEEHAGAIFLWFGDDAHKEPAPLVLPEELVGEEYASFLCMSHWKCNYQYAIDNVMDPMHGAYLHATSHSMAEGDKQADMRVRKTETGLMFEKIGQRDVNFDWVELGETGCLWMRLAIPYKKKFGPGGNFGIIGFAVPVDEDNCQVYFWRTRKVQGWQRDAWRFMYRNRLEGLHWAVLEQDRYVLESMAPNARDHEFLYQHDVGMTRVRRMLRQRAQQHFADLDAHRAQAVSATPAAAEAGHSHA”, the “soluble on expression in E. coli” value is recorded as “not soluble”.

On to “SAQFINGTINSWFGNDTHEALERSLNLSKSALNLAADNALGNAVPVQIDLIGAASLPGDMGRVLEHYAGSGFAQLALYNAASGKIEKSINPHKLDQPFPGKARWEKIQRAGSVRDLESIGGVLYAQGWLSAGTHNGRDYALFFRQPVPKGVAEDAVLIEKARAKYAELSYSKKGLQT”, for which the “soluble on expression in E. coli” value was “not soluble”.

Consider “MNENGATPVAAARRHRPLPAERATSNSNETGLLINVIRSLTSSVSEDQREVEKSRLEKGYKESGALIDRLVKNHQQDVEKCLVSFRDVSSKISNCRERIHNVRNALHTVKSLLELRRDDLKKLWHENAQQKSVCEIMAKLEELREAPSKIENLISKEQYQQAADTVTESRELINGRLSRVEGLSHLSAEIERFTKILIDKINDTLVNMLVVEPFEKHLLHIVRTIPEHRINQNAYCHSLSTKSRSGSGSVSSFSDVSAKSRIVSSVEALSTLFRTVEERHWDVDRLMMLGKNMIDKMIVNTVQVMKIGANIDESNEGDTTHLKQLMQLLSAQFDSASQQHAEFGVLVEKQLGRKDVVTSFWRSAQSAIEVVVSEHLDINPLLEKQNVLGTASRKQLFRFENTACATPNANSSSHRTKAVICKPSAYNIKVIFPILSRLMETTEKNINDSPCELRRFMHSFVMEVFVERVKGELASRIEGALRGGEAVRVSTNKKILPSCEKVLNLCKEVQDLIVSIDLYADRFAALWLLVLTDYFKNMTDVYDRMTPKNPDPSLPNSEALPTRRQKISAAWTADDDISRLLMSLPNWHAASISPMTPAVESELDVGERNKRESEILIGNLGTQAQNSLSESDLITDMNDIKMFASLHESLRWFSDEIRELVHSLPANVKMMLDTCMVQVRLKDGQMIDNNSVPSAIEDCVRRLESIADSCLLLLHIEIRVHCFFHLAPLAKYRNTSSHNEVDPEVVALGKDLHQFHDNLKDVLSPAKLSYVFDGLGHLCASLFIHYSQFMPRLTEAAKKRVCRNVWGVQQRLSRITNRRESDLDRARAFFDLLLDNTPDGILAIVPEKRSQFTATELNYLLALSVRSDKTLASQPGALEKRQMVLNSILNQKK”, for which the “soluble on expression in E. coli” value is reported as “not soluble”.

As for “MSLPSEISDKATVPIEIGLTAAIVAIEANQPMILTASGDGGGSLAGLPYGPFDAITHRTLEIGLRAWVEEQTGLRLGYVEQLYTFGDRGRHARLGDTEVHVASIGYLALTRAADNAARAAGATFEPWYRFFPWEDWREQQPAIIARDIIPELTAWAAQAEEPGMARALARKDRVRLFFGVDGAPWDEERVLDRYELLYEAGLIEEARRDGRPAALSRSKAPTLGVAMRFDHRRILATAIARLRAKLKYRPVVFELLPPEFTLTELQHTVEAISGRHLHKQNFRRLVEAGALVEPTGEM”, the “soluble on expression in E. coli” value is reported as “not soluble”.

For the sequence “STNAEAVTVTNKQIIFPDYVTGFPKESDLKITTTTIDLRLPEGSTSVLVKNLYLSCDPYMRICMGKPDPLSSSLVPPYKTGVPIIGLGVSKVIDSGHPDYKKGDLLWGLVGWEEYSVITLTTYSHFKIEHTDVPLSYYTGLLGMPGMTAYAGFYEVCSPKKGETVFVSAASGAVGQLVGQFAKLMGCYVVGSAGSKEKVYLLKTKFGFDDAFNYKEEKDFSAALKRYFPEGIDIYFENVGGKMLDAVLINMKLHGRVAVCGMISQYNLVDPEGVHNLPTILYKRIQLQGFGVCDFYDKYPKFLDFVLPYIREGKITYVEDIAEGFESGPSALLGLFEGKNVGKQLFVVARE”, the “soluble on expression in E. coli” value was “soluble”.

For “MGSSHHHHHHSSGLVPRGSEELQNKLEDVVIDRNLLILGKILGEGEFGSVMEGNLKQEDGTSLKVAVKTMKLDNSSQREIEEFLSEAACMKDFSHPNVIRLLGVCIEMSSQGIPKPMVILPFMKYGDLHTYLLYSRLETGPKHIPLQTLLKFMVDIALGMEYLSNRNFLHRDLAARNCMLRDDMTVCVADFGLSKKIYSGDYYRQGRIAKMPVKWIAIESLADRVYTSKSDVWAFGVTMWEIATRGMTPYPGVQNHEMYDYLLHGHRLKQPEDCLDELYEIMYSCWRTDPLDRPTFSVLRLQLEKLLESLPDV”, the “soluble on expression in E. coli” value is listed as “soluble”.

For the sequence “MESTSTTVPSIVVYVTVPNKEAGKRLAGSIISEKLAACVNIVPGIESVYWWEGKVQTDAEELLIIKTRESLLDALTEHVKANHEYDVPEVIALPIKGGNLKYLEWLKNSTRES”, the “soluble on expression in E. coli” value is recorded as “soluble”.

For the sequence “GPYGAPAGPLIVPYNLPLPGGVVPRMLITILGTVKPNANRIALDFQRGNDVAFHFNPRFNENNRRVIVCNTKLDNNWGREERQSVFPFESGKPFKIQVLVEPDHFKVAVNDAHLLQYNHRVKKLNEISKLGISGDIDLTSASYTMI”, the “soluble on expression in E. coli” value is on record as “soluble”.

Take “MSLTQPPQQAISAAHSELEQNHRVLLQLMDTLVSQIKDYSEDVEFNLQNDSTIKNTIVEILSFISRSNQKDQLSLKVSQAVVNSLFGSNESKLCRDVLSLLLEKLCSLSIVARKDVVWWLVYALDPRKFNVPVVRSLLEVNLINIAEFDAVLVTAMKNGMAGATEFSMNLIRDTVMADSPILMRLDFIRILGYLRTINTPEIKAFLEEYEQCRAVPVSKTTSITKVERYYLVFTEWVKLQQRVETDDVVNIVFIRQLFEKGVIDSKEKVIEFIKAALELSVNSFKQSDPTGEVFTSIDALSRLITSLLVVQELNVEERKEYLNLLLSVVTLVFAKDHQTNMTSFNERPYFRLYSSLLSDWDKLRDHHFIRVSDSVVRKSLIEFDQYFFDIFASFLHSYQPIAFPGFSFAWITLISHRMFLPKVLRSKELYGWDKLVLLLIDLMKFLSQYIKKDNVPDSISVIYKGALRIFLGISNDVPEFLIQNHYKLVKNVPPTCIQLRNIILSAIPKKMMIPDPFVSEITEDNCKDIPQVFYDPSQDLKSLKKPIINYLRIPSSSLLRTICGGMFRTELEYENGIGYDENNVDVNLIHAIVTHVAVEVGLEVEKASKNAVFNVKSSYYTLLFGLLSDGNDEVKFHIIQAMVNQLRYPNVHTHWFNFALKLMFQSDQWPDDQLSTIQEIILRSLLERIIVNKPHPWGVVVTFMDLLKLEGTKMIEKPFINDIPEIHAIMKNLQKYALTSSSEGHHHHHH”: the “soluble on expression in E. coli” value is “soluble”.

Turning to “RAGHIEVAEVEGMSFPVKLDTGADVSSINAKDIKLFQKDGKDMVSFTYENDLGMQKAFTREVVDVMKITAKKGEKANVRPVVEMHVKLGELEKKIRVNLQDRGRFHYSMILGKNFLKHGALVASETNYIVTKKPDYEK”, the “soluble on expression in E. coli” value is given as “not soluble”.

For “MGRSNKHDVTSTTPSLAIVQANPHPHKDVVPTEAPIVSSYNDHIRPLLDTVDKLRNLNVMQEGIQLPTIVVVGDQSSGKSSVLESLAGISLPRGQGICTRVPLVMRLQRSRSPEPEIWLEYGDKIVPTDEEHIAQTICAATDVIAGSGKGVSDTPLTLHVKKAGVPDITMVDLPGITRVPVNGQPENIYEQISRMVMKYIEPQESIILNVLSATVDFTTCESIRMSKQVDKTGERTLAVVTKADMAPEGLLQKVTADDVSIGLGYVCVRNRIGEETYEEARMQEELLFRTHPMLSMINDEIVGIPVLAQKLTQIQGMMISRCLPEIERKINVKMEISVLEFNKLPIVMASTGEALMSLMDIIGSAKESLLRILVHGDFSEYPNDQKMHCTARLAEMLNRFSDNLQAQPQAVTEEFLMDEIKVLEERKCIGLPNFIPRSSFLAILSQHVDGIQDKPVEFIKEIWDYIEVVLSSVITTYSDNFPQIQSSIKRAGRNLMSRTKERSKTTSQQNFINSVLHDENKPENFALPGFGDVKISHLRKYHAHLLQQAFDMKMRITSYWTIVLRRVVDNLALYLQFSVKNLVNSQFQKEIVAEMVDPRAGGGIDRMLEESPSVASKREKLKNSLKLLKESKDVVAAIVDQNSVYADR”, the “soluble on expression in E. coli” value is listed as “soluble”.

As to “MNEPPVSVVLPTYDRPEILRNAVKSVQEQTYRHIELVVVDDHSPTPAADTLSPLSFDELTVEIIRHEENRGANEARNTGIRESTGEYIAFLDDDDDWAPSKIEKQVAVFREASPEVGVVYTGSEYVYDDYVRTVVFSLEGDVTEEMLRGRSLGEFTTLMVRRDVAMAAGLPDTDFPSWQDRDWLLRLSCHCKFKTVPEALTTRRRKTGEDSISDNFEEKRDISYPLFIEKHRDLAAEYGWRCERAFMAATTESLGQEALKNGYYADAKKYFLKALRYHPLDRSRLVYALVAYGGKYTYGAAHTLASLLHRVRTDTIHKLEHHHHHH”, the “soluble on expression in E. coli” value is given as “not soluble”.
